Measured values taken from US20080014191A1.

Target: wild-type cystic fibrosis transmembrane conductance regulator (CFTR) (Homo sapiens (Human)) (UniProt P13569)
Test: CFTR co-IP, MudPIT MS; BHK wt

Sequence of wild-type cystic fibrosis transmembrane conductance regulator (CFTR) (Homo sapiens (Human)) (P13569 whole entry): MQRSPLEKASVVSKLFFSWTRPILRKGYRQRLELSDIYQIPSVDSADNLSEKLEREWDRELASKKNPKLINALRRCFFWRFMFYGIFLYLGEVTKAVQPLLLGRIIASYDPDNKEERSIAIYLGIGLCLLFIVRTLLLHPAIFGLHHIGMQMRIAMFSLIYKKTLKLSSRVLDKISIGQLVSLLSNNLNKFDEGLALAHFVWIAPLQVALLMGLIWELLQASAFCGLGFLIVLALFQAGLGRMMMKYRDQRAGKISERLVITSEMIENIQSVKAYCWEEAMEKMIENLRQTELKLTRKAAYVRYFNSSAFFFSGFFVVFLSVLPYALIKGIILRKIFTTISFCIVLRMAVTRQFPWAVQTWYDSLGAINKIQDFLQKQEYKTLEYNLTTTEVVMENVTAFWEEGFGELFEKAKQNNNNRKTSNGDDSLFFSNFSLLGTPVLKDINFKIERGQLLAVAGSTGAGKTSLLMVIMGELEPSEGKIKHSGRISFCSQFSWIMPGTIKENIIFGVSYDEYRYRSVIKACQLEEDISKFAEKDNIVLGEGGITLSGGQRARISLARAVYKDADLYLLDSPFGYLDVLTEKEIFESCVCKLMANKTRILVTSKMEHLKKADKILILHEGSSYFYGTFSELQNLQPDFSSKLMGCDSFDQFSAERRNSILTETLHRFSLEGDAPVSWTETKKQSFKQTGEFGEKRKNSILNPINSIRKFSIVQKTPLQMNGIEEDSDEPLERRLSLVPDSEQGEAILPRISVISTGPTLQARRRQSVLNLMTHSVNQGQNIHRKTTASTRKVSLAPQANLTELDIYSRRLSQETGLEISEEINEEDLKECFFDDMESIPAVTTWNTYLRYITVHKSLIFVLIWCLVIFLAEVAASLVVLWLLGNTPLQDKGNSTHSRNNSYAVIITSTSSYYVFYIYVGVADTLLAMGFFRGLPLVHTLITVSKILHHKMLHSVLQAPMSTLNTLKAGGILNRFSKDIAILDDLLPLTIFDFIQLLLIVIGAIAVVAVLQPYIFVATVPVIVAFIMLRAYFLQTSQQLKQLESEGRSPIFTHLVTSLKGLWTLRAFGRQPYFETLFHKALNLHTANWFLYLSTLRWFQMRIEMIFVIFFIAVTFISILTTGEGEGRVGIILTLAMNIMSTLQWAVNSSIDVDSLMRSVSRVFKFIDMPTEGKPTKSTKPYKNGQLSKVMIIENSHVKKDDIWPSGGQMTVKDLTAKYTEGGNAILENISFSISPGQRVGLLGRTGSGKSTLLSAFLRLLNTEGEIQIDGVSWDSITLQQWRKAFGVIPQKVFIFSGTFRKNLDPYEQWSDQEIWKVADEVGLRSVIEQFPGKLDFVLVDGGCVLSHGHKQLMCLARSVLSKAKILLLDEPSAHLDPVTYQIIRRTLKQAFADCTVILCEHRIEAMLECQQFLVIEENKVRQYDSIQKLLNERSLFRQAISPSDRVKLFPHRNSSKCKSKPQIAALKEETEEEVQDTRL

% sequence coverage: 10%
total spectra: 7 spectra
unique spectra: 4 spectra
B1: Calnexin (protein, UniProt P27824 21-592, looked up)
chain: HDGHDDDVIDIEDDLDDVIEEVEDSKPDTTAPPSSPKVTYKAPVPTGEVYFADSFDRGTLSGWILSKAKKDDTDDEIAKYDGKWEVEEMKESKLPGDKGLVLMSRAKHHAISAKLNKPFLFDTKPLIVQYEVNFQNGIECGGAYVKLLSKTPELNLDQFHDKTPYTIMFGPDKCGEDYKLHFIFRHKNPKTGIYEEKHAKRPDADLKTYFTDKKTHLYTLILNPDNSFEILVDQSVVNSGNLLNDMTPPVNPSREIEDPEDRKPEDWDERPKIPDPEAVKPDDWDEDAPAKIPDEEATKPEGWLDDEPEYVPDPDAEKPEDWDEDMDGEWEAPQIANPRCESAPGCGVWQRPVIDNPNYKGKWKPPMIDNPSYQGIWKPRKIPNPDFFEDLEPFRMTPFSAIGLELWSMTSDIFFDNFIICADRRIVDDWANDGWGLKKAADGAAEPGVVGQMIEAAEERPWLWVVYILTVALPVFLVILFCCSGKKQTSGMEYKKTDAPQPDVKEEEEEKEEEKDKGDEEEEGEEKLEEKQKSDAEEDGGTVSQEEEDRKPKAEEDEILNRSPRNRKPRRE
